Source: the supplement of paper PMC10065799, “High-throughput profiling of sequence recognition by tyrosine kinases and SH2 domains using bacterial peptide display” (eLife, 2023)

molecular target: c-Src SH2; assay: SH2 binding enrichment of the phosphorylated peptide, bacterial display (enrichment ratio); higher = better substrate or ligand; peptides without Tyr show the background
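Throughout, for SH2 binding enrichment of the phosphorylated peptide, bacterial display: peptide library displayed on the E. coli surface as eCPX fusions, selected cells deep-sequenced, score is each peptide's frequency after selection divided by its frequency in the input.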

Sequence | SH2 binding enrichment
ELANLYHHVCM [BICD2_Y538] | 0.783
GVRFTYTIDGS [DCX_Y105_I104T_YF] | 0.475
EQLRAYLEGTC [HLA-C_Y183] | 0.561
SLMNQYVNKEF [RAB7A_Y28_K32E] | 0.578
KGSEGYLAAIF [NF1_Y2503_T2507I_YF] | 0.428
DLSEVYKPRRK [CCDC93_Y176] | 0.315
GIYKDYYRYNF [PLA2G2D_Y85_S80G] | 1.03
KDFETYQSFQN [CTNND2_Y1157_P1159S_YF] | 0.523
RRNEEYCLLAS [ITK_Y198_D202A] | 0.627
PVGVLYKVKVY [PTS_Y128] | 0.398
KGEDFYCVTFH [FHL1_Y149_C153Y_YF] | 0.515
RRIHSYRGRLW [VHL_Y112_H115R] | 0.372
FGLQAYTEVKT [ALDH2_Y502_YF] | 7.17
PELINYHQHFS [BTK_Y361_N365Y_YF] | 0.557
LREKVYVSLEA [RXRA_Y397_A398V] | 1.06
ADKSVYLMGLN [MYH7_Y386_A385V] | 0.528
SLNEVYTKNKT [MSH2_Y563_E562V] | 0.456

Sequence | SH2 binding enrichment
DGTESYHTVSS [PLK1_Y462_L463H] | 1.61
PTTKTYFPHFF [HBA1_Y43_D48Y_YF] | 0.683
LKALHYMVQTS [SACS_Y3367] | 0.721
TIQIMYGCDVG [HLA-A_Y123] | 0.654
GKSFIYAAFHA [KCNT1_Y563_T562I] | 0.685
GSSSSCGQHGS [HRNR_Y517_Y517C] | 0.553
RRIHSYRGQLW [VHL_Y112_H115Q] | 0.343
KSVVTYSPTTG [ITGB3BP_Y32_I30V] | 0.397
KILGRYFETSS [PAX2_Y72_G76S_YF] | 0.611
DTDSSYCIPIA [GAB1_Y373_T377I] | 0.551
CKRQFYLFKGK [RSPO4_Y112_YF] | 1.07
ESDYTYSSSYE [SRPK2_Y427] | 1.15
DRQASYLDKVR [KRT16_Y131_L128Q] | 0.465
CGPLLYGLVHQ [PRKCG_Y122_S119P] | 0.517
PNQRRYVFFFS [PTEN_Y174_S170N_YF] | 1.23
GHEFIYVDRMQ [PDGFRB_Y581_P584R_YF] | 0.399

molecular target: Grb2 SH2 (UniProt P62993); assay: as above
Sequence (P62993 whole entry, looked up): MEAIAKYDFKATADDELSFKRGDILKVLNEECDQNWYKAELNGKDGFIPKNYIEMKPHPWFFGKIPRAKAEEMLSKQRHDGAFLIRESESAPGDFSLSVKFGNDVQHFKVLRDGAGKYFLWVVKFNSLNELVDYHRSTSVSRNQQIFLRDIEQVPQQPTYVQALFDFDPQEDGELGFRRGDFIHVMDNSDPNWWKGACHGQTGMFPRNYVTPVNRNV

Sequence | SH2 binding enrichment
ELANLYHHVCM [BICD2_Y538] | 0.673
GVRFTYTIDGS [DCX_Y105_I104T_YF] | 0.87
EQLRAYLEGTC [HLA-C_Y183] | 0.844
SLMNQYVNKEF [RAB7A_Y28_K32E] | 2.46
KGSEGYLAAIF [NF1_Y2503_T2507I_YF] | 0.769
DLSEVYKPRRK [CCDC93_Y176] | 0.414
GIYKDYYRYNF [PLA2G2D_Y85_S80G] | 1.13
KDFETYQSFQN [CTNND2_Y1157_P1159S_YF] | 0.846
RRNEEYCLLAS [ITK_Y198_D202A] | 1.11
PVGVLYKVKVY [PTS_Y128] | 0.73
KGEDFYCVTFH [FHL1_Y149_C153Y_YF] | 1.03
RRIHSYRGRLW [VHL_Y112_H115R] | 0.967
FGLQAYTEVKT [ALDH2_Y502_YF] | 0.869
PELINYHQHFS [BTK_Y361_N365Y_YF] | 0.895
LREKVYVSLEA [RXRA_Y397_A398V] | 0.774
ADKSVYLMGLN [MYH7_Y386_A385V] | 0.92
SLNEVYTKNKT [MSH2_Y563_E562V] | 0.722

Sequence | SH2 binding enrichment
DGTESYHTVSS [PLK1_Y462_L463H] | 0.769
PTTKTYFPHFF [HBA1_Y43_D48Y_YF] | 1.23
LKALHYMVQTS [SACS_Y3367] | 0.77
TIQIMYGCDVG [HLA-A_Y123] | 0.857
GKSFIYAAFHA [KCNT1_Y563_T562I] | 0.893
GSSSSCGQHGS [HRNR_Y517_Y517C] | 0.982
RRIHSYRGQLW [VHL_Y112_H115Q] | 0.637
KSVVTYSPTTG [ITGB3BP_Y32_I30V] | 0.814
KILGRYFETSS [PAX2_Y72_G76S_YF] | 1.12
DTDSSYCIPIA [GAB1_Y373_T377I] | 0.88
CKRQFYLFKGK [RSPO4_Y112_YF] | 1.28
ESDYTYSSSYE [SRPK2_Y427] | 0.829
DRQASYLDKVR [KRT16_Y131_L128Q] | 0.846
CGPLLYGLVHQ [PRKCG_Y122_S119P] | 0.815
PNQRRYVFFFS [PTEN_Y174_S170N_YF] | 1.14
GHEFIYVDRMQ [PDGFRB_Y581_P584R_YF] | 0.92

molecular target: SHP2-C SH2; assay: as above

Sequence | SH2 binding enrichment
ELANLYHHVCM [BICD2_Y538] | 0.597
GVRFTYTIDGS [DCX_Y105_I104T_YF] | 0.545
EQLRAYLEGTC [HLA-C_Y183] | 0.707
SLMNQYVNKEF [RAB7A_Y28_K32E] | 0.949
KGSEGYLAAIF [NF1_Y2503_T2507I_YF] | 0.612
DLSEVYKPRRK [CCDC93_Y176] | 0.481
GIYKDYYRYNF [PLA2G2D_Y85_S80G] | 1.31
KDFETYQSFQN [CTNND2_Y1157_P1159S_YF] | 0.816
RRNEEYCLLAS [ITK_Y198_D202A] | 0.498
PVGVLYKVKVY [PTS_Y128] | 0.584
KGEDFYCVTFH [FHL1_Y149_C153Y_YF] | 0.799
RRIHSYRGRLW [VHL_Y112_H115R] | 0.561
FGLQAYTEVKT [ALDH2_Y502_YF] | 2.52
PELINYHQHFS [BTK_Y361_N365Y_YF] | 0.934
LREKVYVSLEA [RXRA_Y397_A398V] | 0.94
ADKSVYLMGLN [MYH7_Y386_A385V] | 1.54
SLNEVYTKNKT [MSH2_Y563_E562V] | 0.581

Sequence | SH2 binding enrichment
DGTESYHTVSS [PLK1_Y462_L463H] | 0.755
PTTKTYFPHFF [HBA1_Y43_D48Y_YF] | 1.01
LKALHYMVQTS [SACS_Y3367] | 0.794
TIQIMYGCDVG [HLA-A_Y123] | 0.75
GKSFIYAAFHA [KCNT1_Y563_T562I] | 1
GSSSSCGQHGS [HRNR_Y517_Y517C] | 0.875
RRIHSYRGQLW [VHL_Y112_H115Q] | 0.45
KSVVTYSPTTG [ITGB3BP_Y32_I30V] | 0.668
KILGRYFETSS [PAX2_Y72_G76S_YF] | 1.07
DTDSSYCIPIA [GAB1_Y373_T377I] | 0.441
CKRQFYLFKGK [RSPO4_Y112_YF] | 1.05
ESDYTYSSSYE [SRPK2_Y427] | 0.734
DRQASYLDKVR [KRT16_Y131_L128Q] | 0.614
CGPLLYGLVHQ [PRKCG_Y122_S119P] | 0.881
PNQRRYVFFFS [PTEN_Y174_S170N_YF] | 1.88
GHEFIYVDRMQ [PDGFRB_Y581_P584R_YF] | 0.741

tested on: c-Abl (mouse); assay: phosphorylation enrichment, bacterial display (enrichment ratio); higher = better substrate or ligand; peptides without Tyr show the background;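 note: 11-residue human phosphosite peptides and single-mutation variants displayed on the E. coli surface, counted by deep sequencing, each peptide's frequency after selection divided by its frequency in the unselected input library; frequency after pTyr selection over input frequency; kinase dosed for 20-30% of maximal phosphorylation in three min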

Sequence | phosphorylation enrichment
ELANLYHHVCM [BICD2_Y538] | 0.982
GVRFTYTIDGS [DCX_Y105_I104T_YF] | 0.715
EQLRAYLEGTC [HLA-C_Y183] | 0.53
SLMNQYVNKEF [RAB7A_Y28_K32E] | 0.482
KGSEGYLAAIF [NF1_Y2503_T2507I_YF] | 0.61
DLSEVYKPRRK [CCDC93_Y176] | 0.59
GIYKDYYRYNF [PLA2G2D_Y85_S80G] | 5.76
KDFETYQSFQN [CTNND2_Y1157_P1159S_YF] | 0.668
RRNEEYCLLAS [ITK_Y198_D202A] | 0.522
PVGVLYKVKVY [PTS_Y128] | 0.914
KGEDFYCVTFH [FHL1_Y149_C153Y_YF] | 0.895
RRIHSYRGRLW [VHL_Y112_H115R] | 0.836
FGLQAYTEVKT [ALDH2_Y502_YF] | 0.727
PELINYHQHFS [BTK_Y361_N365Y_YF] | 0.711
LREKVYVSLEA [RXRA_Y397_A398V] | 0.542
ADKSVYLMGLN [MYH7_Y386_A385V] | 0.338
SLNEVYTKNKT [MSH2_Y563_E562V] | 0.437

Sequence | phosphorylation enrichment
DGTESYHTVSS [PLK1_Y462_L463H] | 0.552
PTTKTYFPHFF [HBA1_Y43_D48Y_YF] | 0.453
LKALHYMVQTS [SACS_Y3367] | 0.533
TIQIMYGCDVG [HLA-A_Y123] | 1.18
GKSFIYAAFHA [KCNT1_Y563_T562I] | 2.75
GSSSSCGQHGS [HRNR_Y517_Y517C] | 0.411
RRIHSYRGQLW [VHL_Y112_H115Q] | 0.906
KSVVTYSPTTG [ITGB3BP_Y32_I30V] | 0.618
KILGRYFETSS [PAX2_Y72_G76S_YF] | 0.529
DTDSSYCIPIA [GAB1_Y373_T377I] | 0.82
CKRQFYLFKGK [RSPO4_Y112_YF] | 0.497
ESDYTYSSSYE [SRPK2_Y427] | 0.725
DRQASYLDKVR [KRT16_Y131_L128Q] | 0.494
CGPLLYGLVHQ [PRKCG_Y122_S119P] | 0.73
PNQRRYVFFFS [PTEN_Y174_S170N_YF] | 1.22
GHEFIYVDRMQ [PDGFRB_Y581_P584R_YF] | 0.651
